T1: Growth and differentiation factor 8 (GDF8) (human, UniProt O14793 267-375)
T1 sequence (looked up): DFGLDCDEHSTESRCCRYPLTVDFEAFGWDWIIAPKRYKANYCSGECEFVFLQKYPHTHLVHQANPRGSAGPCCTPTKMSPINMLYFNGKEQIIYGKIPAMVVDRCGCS

T2: activin AB (human, UniProt P08476 311-426; P09529 293-407)
T2 sequence (looked up) 1: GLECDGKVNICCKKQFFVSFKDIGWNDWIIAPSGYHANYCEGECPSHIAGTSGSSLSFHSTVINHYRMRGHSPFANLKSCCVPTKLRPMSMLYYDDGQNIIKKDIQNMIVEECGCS
T2 sequence (looked up) 2: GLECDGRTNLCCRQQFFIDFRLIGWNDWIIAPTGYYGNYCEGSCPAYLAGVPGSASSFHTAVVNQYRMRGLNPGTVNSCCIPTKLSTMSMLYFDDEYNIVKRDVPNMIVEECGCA

T3: activin AC (human, UniProt P08476 311-426; P55103 237-352)
T3 sequence (looked up) 1: T2 sequence (looked up) 1
T3 sequence (looked up) 2: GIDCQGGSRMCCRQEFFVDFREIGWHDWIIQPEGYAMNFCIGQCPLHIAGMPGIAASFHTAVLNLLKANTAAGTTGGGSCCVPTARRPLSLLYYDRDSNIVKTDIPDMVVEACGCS

B1: ActRIIB.hFc (soluble form of activin receptor type IIB fused to human IgG Fc fragment) (Fc fusion, UniProt Q13705 19-137, looked up)
chain: SGRGEAETRECIYYNANWELERTNQSGLERCEGEQDKRLHCYASWRNSSGTIELVKKGCWLDDFNCYDRQECVATEENPQVYFCCCEGNFCNERFTHLPEAGGPEVTYEPPPTAPTLLT
notes: activin receptor type IIB (ACVR2B; ActRIIB), soluble form; also called hActRIIB.hFc; ACVR2B; source: made at Regeneron
B2: activin A (ligand, human, UniProt P08476 311-426, looked up)
chain: T2 sequence (looked up) 1
notes: human activin A: inhibin beta A chain, mature growth factor domain; also called Act A; source: bought: R&D Systems
B3: GDF11 (ligand, human, UniProt O95390 299-407, looked up)
chain: NLGLDCDEHSSESRCCRYPLTVDFEAFGWDWIIAPKRYKANYCSGQCEYMFMQKYPHTHLVQQANPRGSAGPCCTPTKMSPINMLYFNDKQQIIYGKIPGMVVDRCGCS
notes: human GDF11, mature growth factor domain; source: bought: R&D Systems
B4: activin B (ligand, human, UniProt P09529 293-407, looked up)
chain: T2 sequence (looked up) 2
notes: human activin B: inhibin beta B chain, mature growth factor domain; source: bought: R&D Systems

Key:
activin B = biological target: B4; test: cell-based or functional assay
[1] = biological target: T1, Growth and differentiation factor 8 …; test: cell-based or functional assay
activin A = biological target: B2; test: cell-based or functional assay
activin AB [2] = biological target: T2, activin AB; test: cell-based or functional assay
activin AC [3] = biological target: T3, activin AC; test: cell-based or functional assay
GDF11 = biological target: B3; test: cell-based or functional assay
activin AB [4] = biological target: T2, activin AB; test: SPR; ligands at 40 to 0.78 nM injected over captured ActRIIB.hFc surface; Biacore T200, carboxymethyl dextran-coated CM4 sensor chip, 25 °C; conditions: both partners purified
activin AC [5] = biological target: T3, activin AC; test: as above; conditions: both partners purified
[6] = biological target: B1; test: as above; conditions: both partners purified

Binder: B1
IC50 of ActRIIB.hFc against activin B-stimulated Smad2/3 activity (CAGAx12-luc reporter, A204 cells; fixed ligand concentration) (activin B): 0.55 nM | IC50 of ActRIIB.hFc against GDF8-stimulated Smad2/3 activity (CAGAx12-luc reporter, A204 cells; fixed ligand concentration) [1]: 0.3 nM | IC50 of ActRIIB.hFc against activin A-stimulated Smad2/3 activity (CAGAx12-luc reporter, A204 cells; fixed ligand concentration) (activin A): 0.63 nM | IC50 of ActRIIB.hFc against activin AB-stimulated Smad2/3 activity (CAGAx12-luc reporter, A204 cells; fixed ligand concentration) (activin AB [2]): 0.39 nM | IC50 of ActRIIB.hFc against activin AC-stimulated Smad2/3 activity (CAGAx12-luc reporter, A204 cells; fixed ligand concentration) (activin AC [3]): 0.085 nM | IC50 of ActRIIB.hFc against GDF11-stimulated Smad2/3 activity (CAGAx12-luc reporter, A204 cells; fixed ligand concentration) (GDF11): 0.21 nM | Kd (activin AB [4]): 0.0044 nM | Kd (activin AC [5]): 5.9 nM

Binder: B2
Kd [6]: < 0.0035 nM

Binder: B3
Kd [6]: 0.014 nM

Binder: B4
Kd [6]: 0.0064 nM
